Measurements from patent US20250320309A1 (SHENGHE CHINA BIOPHARMACEUTICAL, published 2025).

T1: human CD24 (human, UniProt P25063 27-59)
T1 chain (looked up): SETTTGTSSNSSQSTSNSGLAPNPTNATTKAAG

B1: 1-C2-IgG1 (bispecific antibody)
heavy: not shown
light: DIQMTQSPSTLSASVGDRVTITCSASSSVSSMHWYQQKPGKAPKLLIYSTSNLASGVPSRFSGSGSGTEYTLTISSLQPDDFATYYCHHWTSYMYTFGGGTKVEIKRTVAAPSVFIFPPSDEQLKSGTASVVCLLNNFYPREAKVQWKVDNALQSGNSQESVTEQDSKDSTYSLSSTLTLSKADYEKHKVYACEVTHQGLSSPVTKSFNRGEC
B2: 1-D2-IgG4 (bispecific antibody)
heavy: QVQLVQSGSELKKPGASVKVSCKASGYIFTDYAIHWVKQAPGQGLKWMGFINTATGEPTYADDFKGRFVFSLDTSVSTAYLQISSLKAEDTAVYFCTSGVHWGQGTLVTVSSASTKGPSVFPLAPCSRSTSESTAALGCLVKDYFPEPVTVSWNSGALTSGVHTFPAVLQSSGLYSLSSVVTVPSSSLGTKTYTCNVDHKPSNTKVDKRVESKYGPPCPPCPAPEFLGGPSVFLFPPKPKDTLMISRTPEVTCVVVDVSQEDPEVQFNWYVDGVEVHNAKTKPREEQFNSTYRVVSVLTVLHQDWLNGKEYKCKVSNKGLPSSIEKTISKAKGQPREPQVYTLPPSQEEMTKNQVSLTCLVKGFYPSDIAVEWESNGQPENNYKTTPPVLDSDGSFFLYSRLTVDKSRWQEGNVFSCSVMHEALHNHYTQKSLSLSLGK
light: DIQMTQSPSTLSASVGDRVTITCSASSSVSSMHWYQQKPGKAPKLLIYSTSNLASGVPSRFSGSGSGTEYTLTISSLQPDDFATYYCHHWTSYMYTFGGGTKVEIKRTVAAPSVFIFPPSDEQLKSGTASVVCLLNNFYPREAKVQWKVDNALQSGNSQESVTEQDSKDSTYSLSSTLTLSKADYEKHKVYACEVTHQGLSSPVTKSFNRGECGGGGSGGGGSQVQLQESGPGLVKPSETLSLTCTVSGSSLTSYGVHWVRQPPGKCLEGLGVIWPGGSTNYNSALMSRVTISKDNSKSQVSLKMSSLTAADTAVYYCARVTGTWYFDVWGQGTTVTVSSGGGGSGGGGSGGGGSDIQMTQSPSSLSASLGDRVTISCSASQGISNYLNWYQQKPDGTVKLLIYYTSTLHSGVPSRFSGSGSGTDYTLTISSLQPEDIATYYCQQYSKLPWTFGCGTKLEIK

Target: T1, human CD24
Assay: cell-based or functional assay

Row | Binder | ADCP: phagocytosis of CD24-SKOV3 cells by macrophages, EC50 [pM] | ADCP: phagocytosis of MCF-7 cells by macrophages, EC50 [pM]
1 | B1 | 13 | 4
2 | B2 | 4 | 2
